Publication PMC4740771, “Nucleotide-dependent assembly of the peroxisomal receptor export complex” (Scientific Reports, 2016)

T1: HisPex6p (S. cerevisiae, UniProt P33760 1-1030)
T1 construct: Pex6p, type II AAA-ATPase peroxin of yeast; also called single Pex6p; isolated Pex6p; source: E. coli Tuner (DE3), purified (NiNTA-agarose; with HisPex1pGST also GSH-agarose and size exclusion); not shown: His6, N-terminal, kept
T1 sequence (looked up): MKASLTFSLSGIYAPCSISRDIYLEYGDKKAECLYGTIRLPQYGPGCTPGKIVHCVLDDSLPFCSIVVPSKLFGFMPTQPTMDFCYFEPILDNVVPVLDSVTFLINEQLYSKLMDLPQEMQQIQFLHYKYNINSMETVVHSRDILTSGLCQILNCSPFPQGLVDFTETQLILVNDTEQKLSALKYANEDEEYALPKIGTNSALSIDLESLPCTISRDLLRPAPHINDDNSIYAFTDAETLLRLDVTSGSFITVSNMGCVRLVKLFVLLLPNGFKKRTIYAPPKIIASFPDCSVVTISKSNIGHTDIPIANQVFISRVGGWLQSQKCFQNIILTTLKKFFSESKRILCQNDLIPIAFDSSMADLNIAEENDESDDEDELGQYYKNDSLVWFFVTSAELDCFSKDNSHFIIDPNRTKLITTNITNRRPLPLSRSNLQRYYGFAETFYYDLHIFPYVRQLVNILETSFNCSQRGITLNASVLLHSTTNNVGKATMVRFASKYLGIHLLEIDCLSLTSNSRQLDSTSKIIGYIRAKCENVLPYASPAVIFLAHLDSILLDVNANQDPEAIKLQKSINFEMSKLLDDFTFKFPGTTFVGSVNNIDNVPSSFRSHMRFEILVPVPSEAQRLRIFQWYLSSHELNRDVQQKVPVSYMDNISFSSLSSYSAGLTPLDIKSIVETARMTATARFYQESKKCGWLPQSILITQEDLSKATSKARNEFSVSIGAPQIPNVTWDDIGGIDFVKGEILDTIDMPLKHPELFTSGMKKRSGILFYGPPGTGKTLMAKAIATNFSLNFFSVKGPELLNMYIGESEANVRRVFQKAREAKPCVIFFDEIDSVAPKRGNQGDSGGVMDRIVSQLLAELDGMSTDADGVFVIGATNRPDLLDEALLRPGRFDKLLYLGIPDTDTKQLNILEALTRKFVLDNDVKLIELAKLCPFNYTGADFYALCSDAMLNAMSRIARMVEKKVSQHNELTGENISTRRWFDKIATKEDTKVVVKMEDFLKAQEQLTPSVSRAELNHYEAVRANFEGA


Tests used:
[1] = target: T1, HisPex6p; assay: pull-down; GST-Pex15p(1-315)His incubated with purified proteins, loaded on GSH-agarose, eluted with glutathione; 5 mM ATP; Coomassie and immunoblot, signal intensities of load and eluate; conditions: both partners purified
[2] = target: T2, Pex1/6p-complex (recombinant heterohexameric AAA-complex) (S. cerevisiae, UniProt P24004 1-1043; P33760 1-1030); assay: as above; conditions: both partners purified
T2 construct: Pex1p of yeast, as the chain of m3; Pex6p of yeast, as the chain of m2; Described as a trimer of Pex1/6p dimers (heterohexamer, about 700 kDa); Isolated in 5 mM ATP or 5 mM ADP as said for each assay; also called Pex1p/Pex6p-complex; wild-type Pex1/6p; source: E. coli Tuner (DE3), cells mixed and lysed, co-purified (NiNTA-agarose, GSH-agarose, thrombin release, size exclusion); not shown: His6, …

[3] = target: T3, Pex1WB/6p complex (Pex1p E798Q with wild-type Pex6p) (S. cerevisiae, UniProt P24004 1-1043; P33760 1-1030, E798Q); assay: as above; conditions: both partners purified
T3 construct: Pex1p of yeast with the Walker B mutation of the D2 domain; Pex6p of yeast, as the chain of m2; also called Pex1WB^E798Q/6p; not shown: His6, N-terminal, kept; GST, C-terminal, cleaved; copies: 3 + 3

[4] = target: T4, Pex1/6pWB complex (wild-type Pex1p with Pex6p E832Q) (S. cerevisiae, UniProt P24004 1-1043; P33760 1-1030, E832Q); assay: as above; conditions: both partners purified
T4 construct: Pex1p of yeast, as the chain of m3; Pex6p of yeast with the Walker B mutation of the D2 domain; also called Pex1p/Pex6pWB; Pex6WB mutant complex; not shown: His6, N-terminal, kept; GST, C-terminal, cleaved; copies: 3 + 3

[5] = target: the molecule itself; assay: SEC; as a1 but isolated and run in the presence of 5 mM ADP instead of ATP

| binding result [1] | binding result [2] | binding result [3] | binding result [4] | Binder | stoichiometry N [5] |
| --- | --- | --- | --- | --- | --- |
| binds | binds | binds | binds | GST-Pex15p(1-315)His (domain or fragment, S. cerevisiae, UniProt Q08215 1-315, looked up, Pex15p, tail-anchored peroxisomal membrane protein of S. cerevisiae (genomic DNA of strain UTL-7A), cytosolic part, residues 1 to 315; also called cytosolic domain of Pex15p; source: E. coli BL21 (DE3), purified (Glutathione Agarose 4B, dialysis); not shown: GST, N-terminal, kept; His6, C-terminal, kept) MAASEIMNNLPMHSLDSSLRDLLNDDLFIESDESTKSVNDQRSEVFQECVNLFIKRDIKDCLEKMSEVGFIDITVFKSNPMILDLFVSACDIMPSFTKLGLTLQSEILNIFTLDTPQCIETRKIILGDLSKLLVINKFFRCCIKVIQFNLTDHTEQEEKTLELESIMSDFIFVYITKMRTTIDVVGLQELIEIFIFQVKVKLHHKKPSPNMYWALCKTLPKLSPTLKGLYLSKDVSIEDAILNSIDNKIQKDKAKSKGKQRGVKQKIHHFHEPMLHNSSEEQVKVEDAFNQRTSTDSRLQSTGTAPRKKNNDITV | – |
| – | – | – | – | HisPex1p released from HisPex1pGST by thrombin (natural protein, S. cerevisiae, UniProt P24004 1-1043, looked up, Pex1p, type II AAA-ATPase peroxin of yeast; The GST tag held the complex on GSH-agarose during purification and stayed on the column after thrombin cleavage; source: E. coli Tuner (DE3), co-purified with HisPex6p (NiNTA-agarose, GSH-agarose, thrombin release); not shown: His6, N-terminal, kept; GST, C-terminal, cleaved) MTTTKRLKFENLRIQFSNAIVGNFLRLPHSIINVLESTNYAIQEFGIAVHSHNSDIPIVHLGWDGHDSGSSENVVLINPVLATVYDLNQKSPLVDLYIQRYDHTHLATEVYVTPETSDDWEIIDANAMRFQNGEILHQTRIVTPGETLICYLEGIVTKFKIDRVEPSMKSARITDGSLVVVAPKVNKTRLVKAEYGHSNKTILKNGAIQLLKKVILRSTVCKMDFPKDNLFVVYISDGAQLPSQKGYASIVKCSLRQSKKSDSDNKSVGIPSKKIGVFIKCDSQIPENHIALSSHLWDAFFTHPMNGAKIKLEFLQMNQANIISGRNATVNIKYFGKDVPTKSGDQYSKLLGGSLLTNNLILPTEQIIIEIKKGESEQQLCNLNEISNESVQWKVTQMGKEEVKDIIERHLPKHYHVKETGEVSRTSKDEDDFITVNSIKKEMVNYLTSPIIATPAIILDGKQGIGKTRLLKELINEVEKDHHIFVKYADCETLHETSNLDKTQKLIMEWCSFCYWYGPSLIVLDNVEALFGKPQANDGDPSNNGQWDNASKLLNFFINQVTKIFNKDNKRIRVLFSGKQKTQINPLLFDKHFVSETWSLRAPDKHARAKLLEYFFSKNQIMKLNRDLQFSDLSLETEGFSPLDLEIFTEKIFYDLQLERDCDNVVTRELFSKSLSAFTPSALRGVKLTKETNIKWGDIGALANAKDVLLETLEWPTKYEPIFVNCPLRLRSGILLYGYPGCGKTLLASAVAQQCGLNFISVKGPEILNKFIGASEQNIRELFERAQSVKPCILFFDEFDSIAPKRGHDSTGVTDRVVNQLLTQMDGAEGLDGVYILAATSRPDLIDSALLRPGRLDKSVICNIPTESERLDILQAIVNSKDKDTGQKKFALEKNADLKLIAEKTAGFSGADLQGLCYNAYLKSVHRWLSAADQSEVVPGNDNIEYFSINEHGRREENRLRLKTLLQQDVVHETKTSTSAASELTAVVTINDLLEACQETKPSISTSELVKLRGIYDRFQKDRNGEMPNGENSIDIGSRLSLM | 3 |
